Measured values published in patent publication US20110195900A1, “PEPTIDIC PTH RECEPTOR AGONISTS” (FERRING B.V., priority 2008, published 2011).
Starred links: 1 amine or outer side, 2 acyl side, 3 side chain; linkers in the order of their positions; H or OH if unused. Non-standard residues stand in square brackets, D forms with d. No end group written: not given here. hSer(OMe) = COCC[C@H](N[*:1])C(=O)[*:2]; 1Nal = N[C@@H](Cc1cccc2ccccc12)C(=O)O; 2Nal = N[C@@H](Cc1ccc2ccccc2c1)C(=O)O; β3hI = CC[C@H](C)[C@H](N)CC(=O)O; β3hE = N[C@@H](CCC(=O)O)CC(=O)O; Nle = CCCC[C@H](N)C(=O)O; β3hA = C[C@H](N)CC(=O)O; Aib = CC(C)(N)C(=O)O; βAla = NCCC(=O)O

Legend:
[1] = biological target: human parathyroid hormone receptor 1 (human, UniProt Q03431); experiment: cell-based or functional assay
[2] = biological target: human parathyroid hormone receptor 2 (human, UniProt P49190); experiment: cell-based or functional assay

Binder	hPTHR-1 EC50 (nM), CRE-luciferase reporter gene assay [1] [nM]	hPTHR-2 EC50 (nM), luciferase reporter gene assay [2] [nM]
AVSEIQL[Nle]HNLGKHLN[βAla][Nle]ERVE[2Nal]LRKKLQDVHNF-NH2 (N-terminus assumed; SMILES CCCC[C@H](NC(=O)CCNC(=O)[C@H](CC(N)=O)NC(=O)[C@H](CC(C)C)NC(=O)[C@H](Cc1c[nH]cn1)NC(=O)[C@H](CCCCN)NC(=O)CNC(=O)[C@H](CC(C)C)NC(=O)[C@H](CC(N)=O)NC(=O)[C@H](Cc1c[nH]cn1)NC(=O)[C@H](CCCC)NC(=O)[C@H](CC(C)C)NC(=O)[C@H](CCC(N)=O)NC(=O)[C@@H](NC(=O)[C@H](CCC(=O)O)NC(=O)[C@H](CO)NC(=O)[C@@H](NC(=O)[C@H](C)N)C(C)C)[C@@H](C)CC)C(=O)N[C@@H](CCC(=O)O)C(=O)N[C@@H](CCCNC(=N)N)C(=O)N[C@H](C(=O)N[C@@H](CCC(=O)O)C(=O)N[C@@H](Cc1ccc2ccccc2c1)C(=O)N[C@@H](CC(C)C)C(=O)N[C@@H](CCCNC(=N)N)C(=O)N[C@@H](CCCCN)C(=O)N[C@@H](CCCCN)C(=O)N[C@@H](CC(C)C)C(=O)N[C@@H](CCC(N)=O)C(=O)N[C@@H](CC(=O)O)C(=O)N[C@H](C(=O)N[C@@H](Cc1c[nH]cn1)C(=O)N[C@@H](CC(N)=O)C(=O)N[C@@H](Cc1ccccc1)C(N)=O)C(C)C)C(C)C) [[Ala^1, Nle^8,18, β-Ala^17, 2-Nal^23] hPTH (1-34)-NH2]	0.22	95
[Aib]VSEIQL[Nle]HNLGKHLN[βAla][Nle]ERVE[2Nal]LRKKLQDVHNF-NH2 (N-terminus assumed; SMILES CCCC[C@H](NC(=O)CCNC(=O)[C@H](CC(N)=O)NC(=O)[C@H](CC(C)C)NC(=O)[C@H](Cc1c[nH]cn1)NC(=O)[C@H](CCCCN)NC(=O)CNC(=O)[C@H](CC(C)C)NC(=O)[C@H](CC(N)=O)NC(=O)[C@H](Cc1c[nH]cn1)NC(=O)[C@H](CCCC)NC(=O)[C@H](CC(C)C)NC(=O)[C@H](CCC(N)=O)NC(=O)[C@@H](NC(=O)[C@H](CCC(=O)O)NC(=O)[C@H](CO)NC(=O)[C@@H](NC(=O)C(C)(C)N)C(C)C)[C@@H](C)CC)C(=O)N[C@@H](CCC(=O)O)C(=O)N[C@@H](CCCNC(=N)N)C(=O)N[C@H](C(=O)N[C@@H](CCC(=O)O)C(=O)N[C@@H](Cc1ccc2ccccc2c1)C(=O)N[C@@H](CC(C)C)C(=O)N[C@@H](CCCNC(=N)N)C(=O)N[C@@H](CCCCN)C(=O)N[C@@H](CCCCN)C(=O)N[C@@H](CC(C)C)C(=O)N[C@@H](CCC(N)=O)C(=O)N[C@@H](CC(=O)O)C(=O)N[C@H](C(=O)N[C@@H](Cc1c[nH]cn1)C(=O)N[C@@H](CC(N)=O)C(=O)N[C@@H](Cc1ccccc1)C(N)=O)C(C)C)C(C)C) [[Aib^1, Nle^8,18, β-Ala^17, 2-Nal^23] hPTH (1-34)-NH2]	0.22	46
AVSEIQL[Nle]HNLGKHLN[βAla][Nle]ERVE[1Nal]LRKLLQDVHNF-NH2 [[Ala^1, Nle^8,18, β-Ala^17, 1-Nal^23, Leu^27] hPTH (1-34)-NH2]	0.2	89
SVSEIQL[Nle]HNLGKHLN[βAla][Nle]ERVE[1Nal]LRKLLQDVHNF-NH2 [[Nle^8,18, β-Ala^17, 1-Nal^23, Leu^27] hPTH (1-34)-NH2]	0.12	47
[Aib]VSEIQL[Nle]HNLGKHLN[βAla][Nle]ERVE[1Nal]LRKLLQDVHNF-NH2 [[Aib^1, Nle^8,18, β-Ala^17, 1-Nal^23, Leu^27] hPTH (1-34)-NH2]	0.06	31
SVSEIQL[Nle]HNLGKHLN[βAla][hSer(OMe)]ERVE[1Nal]LRKLLQDVHNF-NH2 [[Nle^8, β-Ala^17, hSer(OMe)^18, 1-Nal^23, Leu^27] hPTH (1-34)-NH2]	0.13	93
SVSEIQL[hSer(OMe)]HNLGKHLN[βAla][hSer(OMe)]ERVE[1Nal]LRKLLQDVHNF-NH2 [[hSer(OMe)^8,18, β-Ala^17, 1-Nal^23, Leu^27] hPTH(1-34)-NH2]	0.88	> 270
SVSEIQL[Nle]HNLGKHLNS[β3hA]ERVE[1Nal]LRKLLQDVHNF-NH2 [[Nle^8, β-hAla^18, 1-Nal^23, Leu^27] hPTH (1-34)-NH2]	0.22	61
SVSEIQL[Nle]HNLGKHLNS[β3hI]ERVE[1Nal]LRKLLQDVHNF-NH2 [[Nle^8, β-hIle^18, 1-Nal^23, Leu^27] hPTH (1-34)-NH2]	0.14	32
SVSEIQL[Nle]HNLGKHLNS[Nle][β3hE]RVE[1Nal]LRKLLQDVHNF-NH2 (N-terminus assumed; SMILES CCCC[C@H](NC(=O)[C@H](CO)NC(=O)[C@H](CC(N)=O)NC(=O)[C@H](CC(C)C)NC(=O)[C@H](Cc1c[nH]cn1)NC(=O)[C@H](CCCCN)NC(=O)CNC(=O)[C@H](CC(C)C)NC(=O)[C@H](CC(N)=O)NC(=O)[C@H](Cc1c[nH]cn1)NC(=O)[C@H](CCCC)NC(=O)[C@H](CC(C)C)NC(=O)[C@H](CCC(N)=O)NC(=O)[C@@H](NC(=O)[C@H](CCC(=O)O)NC(=O)[C@H](CO)NC(=O)[C@@H](NC(=O)[C@@H](N)CO)C(C)C)[C@@H](C)CC)C(=O)N[C@@H](CCC(=O)O)CC(=O)N[C@@H](CCCNC(=N)N)C(=O)N[C@H](C(=O)N[C@@H](CCC(=O)O)C(=O)N[C@@H](Cc1cccc2ccccc12)C(=O)N[C@@H](CC(C)C)C(=O)N[C@@H](CCCNC(=N)N)C(=O)N[C@@H](CCCCN)C(=O)N[C@@H](CC(C)C)C(=O)N[C@@H](CC(C)C)C(=O)N[C@@H](CCC(N)=O)C(=O)N[C@@H](CC(=O)O)C(=O)N[C@H](C(=O)N[C@@H](Cc1c[nH]cn1)C(=O)N[C@@H](CC(N)=O)C(=O)N[C@@H](Cc1ccccc1)C(N)=O)C(C)C)C(C)C) [[Nle^8,18, β-hGlu^19, 1-Nal^23, Leu^27] hPTH (1-34)-NH2]	0.32	29
SVSEIQL[Nle]HNLGKHLES[β3hI]ERVE[1Nal]LRKLLQDVHNF-NH2 [[Nle^8, Glu^16, β-hIle^18, 1-Nal^23, Leu^27] hPTH (1-34)-NH2]	0.16	37
SVSEIQL[Nle]HNLGKHLSS[β3hI]ERVE[1Nal]LRKLLQDVHNF-NH2 [[Nle^8, Ser^16, β-hIle^18, 1-Nal^23, Leu^27] hPTH (1-34)-NH2]	0.19	20
SVSEIQL[Nle]HSLGKHLNS[β3hI]ERVE[1Nal]LRKLLQDVHNF-NH2 [[Nle^8, Ser^10, β-hIle^18, 1-Nal^23, Leu^27] hPTH (1-34)-NH2]	0.18	17
SVSEIQL[Nle]HELGKHLNS[β3hI]ERVE[1Nal]LRKLLQDVHNF-NH2 [[Nle^8, Glu^10, β-hIle^18, 1-Nal^23, Leu^27] hPTH (1-34)-NH2]	0.13	3
SVSEIQL[Nle]HNLGKHLNS[β3hI]ERVE[1Nal]LRKLLQHVHNF-NH2 [[Nle^8, β-hIle^18, 1-Nal^23, Leu^27, His^30] hPTH (1-34)-NH2]	0.18	13
[Aib]VSEIQL[Nle]HNLGKHLN[βAla][hSer(OMe)]ERVE[1Nal]LRKLLQDVHNF-NH2 [[Aib^1, Nle^8, β-Ala^17, hSer(OMe)^18, 1-Nal^23, Leu^27] hPTH (1-34)-NH2]	0.06	49
SVSEIQL[Nle]HNLGKHLNS[β3hI]ERVE[1Nal]LRKLLQSVHNF-NH2 [[Nle^8, β-hIle^18, 1-Nal^23, Leu^27, Ser^30] hPTH (1-34)-NH2]	0.19	19
SVSEIQL[Nle]HNLGKHLNS[β3hI]ERVE[1Nal]LRKLLQDVHEF-NH2 [[Nle^8, β-hIle^18, 1-Nal^23, Leu^27, Glu^33] hPTH (1-34)-NH2]	0.12	41
SVSEIQL[Nle]HNLGKHLNS[β3hI]ERVE[1Nal]LRKLLQDVHKF-NH2 [[Nle^8, β-hIle^18, 1-Nal^23, Leu^27, Lys^33] hPTH (1-34)-NH2]	0.15	32
SVSEIQL[Nle]HNLGKHLNS[β3hI]ERVE[1Nal]LRKLLQDVHNE-NH2 [[Nle^8, β-hIle^18, 1-Nal^23, Leu^27, Glu^34] hPTH (1-34)-NH2]	0.12	57
SVSEIQL[Nle]HNLGKHLNS[β3hI]ERVE[1Nal]LRKLLQDVHNK-NH2 [[Nle^8, β-hIle^18, 1-Nal^23, Leu^27, Lys^34] hPTH (1-34)-NH2]	0.1	17
SVSEIQL[Nle]HNL[Aib][Aib]HLNS[β3hI]ERVE[1Nal]LRKLLQDVHNF-NH2 [[Nle^8, Aib^12,13, β-hIle^18, 1-Nal^23, Leu^27] hPTH (1-34)-NH2]	0.25	34
SVSEIQL[Nle]HNL[Aib]KHLNS[β3hI]ERVE[1Nal]LRKLLQDVHNF-NH2 [[Nle^8, Aib^12, β-hIle^18, 1-Nal^23, Leu^27] hPTH (1-34)-NH2]	0.23	13
SVSEIQLXHNLGXHLNSXERVEXLRKLLQDVHNF (Nle^8, Aib^13, β-hIle^18, 1-Nal^23, C-terminal NH2 (amide)) [[Nle^8, Aib^13, β-hIle^18, 1-Nal^23, Leu^27] hPTH (1-34)-NH2]	0.14	68
SVSEIQL[Nle]HNLGKHLKS[β3hI]ERVE[1Nal]LRKLLQDVHNF-NH2 [[Nle^8, Lys^16, β-hIle^18, 1-Nal^23, Leu^27] hPTH (1-34)-NH2]	0.08	30
SVSEIQL[Nle]HNLGKHLNS[β3hI]ERVE[1Nal]LRKLLQRVHNF-NH2 [[Nle^8, β-hIle^18, 1-Nal^23, Leu^27, Arg^30] hPTH (1-34)-NH2]	0.18	7
[Aib]VSEIQL[Nle]HSLGKHLKS[β3hI]ERVE[1Nal]LRKLLQRVHEE-NH2 [[Aib^1, Nle^8, Ser^10, Lys^16, β-hIle^18, 1-Nal^23, Leu^27, Arg^30, Glu^33, Glu^34] hPTH (1-34)-NH2]	0.04	4
